The results in this text go back to FireProtDB (doi:10.1021/acs.biochem.7b01284).

Values joined by “and” are separate entries in the source; they are usually repeats but may differ in a detail not shown here. Equal values may be shown once.

B1: Geranylgeranylglyceryl phosphate synthase, O26652 (parent)
chain: MKVEDYFHDILRERKIHLTLIDPEEQTPEEAVEIARAAIRGGTDGIMLGGSTTDSSELDNTARALRENIDVPIILFPGNTTGVSRYADAIFFMSLLNSTNPYWIIGAQALGAATVKKMGIEALPMGYLVVEPGGTVGWVGDTKPVPRNKPDIAAAYAMAAEFLGMRLFYLEAGSGAPEHVPEEMIALVKRCTDQILIVGGGIRSGEDAARVAGAGADVVVTGTVVENSDNVEDKIREIVEGMGSV

In the first data set the parent is B1. As to conditions: Methanothermobacter thermautotrophicus (strain ATCC 29096 / DSM 1053 / JCM 10044 / NBRC 100330 / Delta H); pH 7.5; Thermal; DSC; potassium phosphate buffer; reversible: no; structure 4MM1; whole UniProt chain shown.
Take MKVEDYFHDILRERKIHLTLIDPEEQTPEEAVEIARAAIRGGTDGIMLGGSTTDSSELDNTARALRENIDVPIILFPGNTTGVSRYADAIFFMSLLNSTNPYWIIGAQALGAATVKKMGIEALPMGYLVVEPGGTVGWVGDTAPVPRNKPDIAAAYAMAAEFLGMRLFYLEAGSGAPEHVPEEMIALVKRCTDQILIVGGGIRSGEDAARVAGAGADVVVTGTVVENSDNVEDKIREIVEGMGSV [K143A]: the “unfolding enthalpy (calorimetric)” value was 100 kcal/mol.
Turning to MKVEDYFHDILRERKIHLTLIDPEEQTPEEAVEIARAAIRGGTDGIMLGGSTTRSSELDNTARALRENIDVPIILFPGNTTGVSRYADAIFFMSLLNSTNPYWIIGAQALGAATVKKMGIEALPMGYLVVEPGGTVGWVGDTKPVPRNKPDIAAAYAMAAEFLGMRLFYLEAGSGAPEHVPEEMIALVKRCTDQILIVGGGIRSGEDAARVAGAGADVVVTGTVVENSDNVEDKIREIVEGMGSV [D54R], the “unfolding enthalpy (calorimetric)” value was 187 kcal/mol and 88 kcal/mol.
Consider MKVEDYFHDILRERKIHLTLIDPEEQTPEEAVEIARAAIRGGTDGIMLGGSTTDSSELDNTARALRENIDVPIILFPGNTTGVSRYADAIFFMSLLNSTNPYWIIGAQALGAATVKKMGIEALPMGYLVVEPGGTVGAVGDTKPVPRNKPDIAAAYAMAAEFLGMRLFYLEAGSGAPEHVPEEMIALVKRCTDQILIVGGGIRSGEDAARVAGAGADVVVTGTVVENSDNVEDKIREIVEGMGSV [W138A], for which the “unfolding enthalpy (calorimetric)” value is 106 kcal/mol and 78.2 kcal/mol.
For MKVEDYFHDILRERKIHLTLIDPEEQTPEEAVEIARAAIRGGTDGIMLGGSTTDSSELDNTARALRENIDVPIILFPGNTTGVSRYADAIFFMSLLNSTNPYWIIGAQALGAATVKKMGIEALPMGYLVVEPGGTVGWVGDTKPVPRNKPDIAAAYAMEAEFLGMRLFYLEAGSGAPEHVPEEMIALVKRCTDQILIVGGGIRSGEDAARVAGAGADVVVTGTVVENSDNVEDKIREIVEGMGSV [A159E], the Tm was found to be 64 °C and the “unfolding enthalpy (calorimetric)” value came out at 173 kcal/mol.
Regarding MKVEDYFHDILRERKIHLTLIDPEEQTPEEAVEIARAAIRGGTDGIMLGGSTTDSSELDNTARALRENIDVPIILFPGNTTGVSRYADAIFFMSLLNSTNPAWIIGAQALGAATVKKMGIEALPMGYLVVEPGGTVGWVGDTKPVPRNKPDIAAAYAMAAEFLGMRLFYLEAGSGAPEHVPEEMIALVKRCTDQILIVGGGIRSGEDAARVAGAGADVVVTGTVVENSDNVEDKIREIVEGMGSV [Y102A], the “unfolding enthalpy (calorimetric)” value is 104 kcal/mol and 108 kcal/mol.

Still in this data set, the particulars now being: Methanothermobacter thermautotrophicus (strain ATCC 29096 / DSM 1053 / JCM 10044 / NBRC 100330 / Delta H); pH 7.5; Thermal; DSF; potassium phosphate buffer; reversible: no; structure 4MM1; whole UniProt chain shown.
In the case of MKVEDYFHDILRERKIHLTLIDPEEQTPEEAVEIARAAIRGGTDGIMLGGSTTDSSELDNTARALRENIDVPIILFPGNTTGVSRYADAIFFMSLLNSTNPYWIIGAQALGAATVKKMGIEALPMGYLVVEPGGTVGWVGDTAPVPRNKPDIAAAYAMAAEFLGMRLFYLEAGSGAPEHVPEEMIALVKRCTDQILIVGGGIRSGEDAARVAGAGADVVVTGTVVENSDNVEDKIREIVEGMGSV [K143A], the Tm is 66 °C.
The same measure, in the same setting: to MKVEDYFHDILRERKIHLTLIDPEEQTPEEAVEIARAAIRGGTDGIMLGGSTTRSSELDNTARALRENIDVPIILFPGNTTGVSRYADAIFFMSLLNSTNPYWIIGAQALGAATVKKMGIEALPMGYLVVEPGGTVGWVGDTKPVPRNKPDIAAAYAMAAEFLGMRLFYLEAGSGAPEHVPEEMIALVKRCTDQILIVGGGIRSGEDAARVAGAGADVVVTGTVVENSDNVEDKIREIVEGMGSV [D54R] belongs 52.2 °C.
Still for that read-out and setting: to MKVEDYFHDILRERKIHLTLIDPEEQTPEEAVEIARAAIRGGTDGIMLGGSTTDSSELDNTARALRENIDVPIILFPGNTTGVSEYADAIFFMSLLNSTNPYWIIGAQALGAATVKKMGIEALPMGYLVVEPGGTVGWVGDTKPVPRNKPDIAAAYAMAAEFLGMRLFYLEAGSGAPEHVPEEMIALVKRCTDQILIVGGGIRSGEDAARVAGAGADVVVTGTVVENSDNVEDKIREIVEGMGSV [R85E] belongs 53.9 °C.
